Source: the nanobody polyreactivity screen of Harvey et al. (2022)

Assay: yeast display, Sf9 membrane polyspecificity reagent, FACS + sequencing; frameworks hold sequencing errors
How it was run: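 Genes from sorted yeast were amplified by colony PCR, read by MiSeq 2 × 250 sequencing and filtered on CDR length. These cells carried a synthetic nanobody library in Saccharomyces cerevisiae BJ5465 and were sorted by FACS into low and high (top ~1%) gates on anti-HA and streptavidin fluorescence. Polyreactivity is labelled according to the gate of origin.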

Row | Sequence | polyreactivity (PSR sort gate)
1 | QVQLVESGGGLVQAGVILRLSCAASGSTFSLYAMGWYRKPPGKERELVAAISWSDGSTYYADSVKGRFTISRDNAKITVYLQMNSLKAEDTAVSYFANASSFAYYRFGYWGQVTQVTVSS | low polyreactivity
2 | QVQLVESGGGLVQAEGSLRLSCAASGFIFRYNAMGWYRQAPGKERELVAAITSGGSTNYADSVKGRFTISRDNAKNTVYLQMNSLKPEDTAVYYCNKYRPYGRIYHLAYGRDYWGQGTQVTVSS | high polyreactivity
3 | QVQLVESGGGLVQAGGSLRLSCAASGITFRGYAMGWYRQAPGKERELVATISYRGGNTYYADSVKGRFTISRDNAKNTVYLQMNSLKPEDTAVYYCARKYFRTSNLYGYWGQGTQVTVSS | high polyreactivity
4 | QVQLVESGGGLVQAGGSLRLSCAASGFIFYPYAMGWYRQAPGKERELVAVITSGGRTYYADSVKGRFTISRDNAKNTVYLQMNSLKPEDTAVYYCAARYGSIHWKANWPEYGYWGQGTQVTVSS | low polyreactivity
5 | QVQLQESVGGLVQAGGSLRLSCAASGNIFPTDRMGWYRQAPGKELEFVATISHGGSTNYADSVKGRFTISRDNAKNTVYLQMNSLKPEDTAVFYCAVWSLGRWRHYYWGQGTQVTVSS | low polyreactivity
6 | QVQLQESGGALVQAGGSLRLSCAASGNIYDADIMGWYRQAPGKERELVTSITDGGSTNYADSVKGRFTISRDNAKNTVYLQMNSLKPQDTAVYYCAAIAYPDIPTSFDYNSDYSYWGQGTQVTVSS | low polyreactivity
7 | QVQLEESGAGLVQARGSLRLSCAASGRTFIWNAMGWYRQAPGKERELVAAISSRGGRTYYADSVKGRFTISRDNAKNTVYLQMNILKPEDTAVYYCAAYYITFIGRGYGYWGQGTQVTVSS | high polyreactivity
8 | QVQLVESGGGLVQAGGSLRLSCAASGRIFPYYDMGWYREAPGKERELVAAITWNGGSTYYADSVKGRFTISRDNAKNTVYLQMNSLKPADTAVYYCAVEPYYYGEDYWGQGTQVTVSS | low polyreactivity
9 | QVQLVDSGGGLVQAGGSIRLSCSPSGGTFGLNSMGWYRQAPGQERELVADIDGRGGSTYYADSVKGRFTISRDNAKNTVYLQMNRLKPEDPAVYYCADLAPFLSVPSELDYWRQGTQVTVSS | low polyreactivity
10 | QVQLVESGGGLVQAGGSLRLSCAASGSTFTRNAMGWYRPAPGKERELVAAITSSGGYTYYADSVKGRFTISRDNAKNTVYLQMNSLKPEDTAVYYCAAYPHRPRDRELDHWGQGTQVTVSS | low polyreactivity
11 | QVQLVESGGGLVQAGGSLRLSCAASGSNFRVYAMGWYSQAAGKERELVAAISRSGSITYYADSVKGRFTISRDNAKNTVYLQMNSLKPEDTAVYYCAARTYCRFTASTYYYWGQGTQVTVSS | high polyreactivity
12 | QVKLVESGGGLVQAGASLRLSVAASGNIFSVNTIGTYRQAPGKERELVAAITRRSGRTYYADSVKGRFTISRDNAKNTVFLQMNSLNPEDTAVYYCAASWRGASVIRFDYWGQGTQVTVSS | high polyreactivity
13 | QVQLVESGGGLVQAGGSLRLSCAASGRIFGFNTMGWYRQAPGKERELVAAISRNGGSTYYADSVKGRFTISRDNAKNTVYLEMNSLKPEDTAVYYCAKRWYPYSYDYWGQGTQVTVSS | high polyreactivity
14 | QVQLVESGGGLVQAGGSLRLSCAASGITFYRYAMGWYRQAPGKERELVAAISRSGGSTYYADSVKGRFTISRDNAKNTVYLQMNSLKPEDTAVDYCAAYILGNRDGYDYWGQGTQVTVSS | high polyreactivity
15 | QVHLVESGGGLVQAGGSLRLSCAASGRTSIFNAMGWYRPAPGKERELVAAITARGASTYYADSVKGRFTISRDNAKNTVYLQKNSLKPDDTAVYYCAARDHAFRYYRNPFKGKYDYWGQGTQVTVSS | low polyreactivity
16 | QVQLVESGGGLVQAGGSLRLSCAASGNTFYWNAMGWYRRAPGKERELVAAISTTGVSTYYADSVKGRFTISRDKAKNTVYLQMNSLKPEDTAVYFCAAEIIGYHTIYDYWGQGTQVTVSS | low polyreactivity
17 | QVQLVESVGGLVQAGGSLRISCAASGRIFSGNAMGWYRQAPGKERELVASISRSGGRTRYADSVKGRFTISRDNAKNTVYLQMNSLKPEDTAVYYFTALSTQSYYFTYAGYDYWGQGTQVTVSS | high polyreactivity
18 | QVQLVESGGGLVQAGGSLRLSCAASGSTLEFNARGWSRQAPGKERELVAVINRSDGSTYYADSVKGRFTISRDNAKNTVYLQMNSLKPEDTAVYYCAADRHQVSVISTEDYWGQGTQVTVSS | low polyreactivity
19 | QDQLVESGGGLVQAGGSLRLSCAASGSNFVPYAMGWYRQSPGKERELVAAISGSGTRTYYAYSVKGRFTISRDNSKNTVYLQMNSLKPEDTAVYYCDADWRRSVGYTMGYWGQGTQVTVSS | high polyreactivity
20 | QVQLVESRGGLVQAGRSLRLSCAASGSTFVQYVMGWYRQAPGKERELVAAITRSGGSTYYADSVKGRFTISRDNAKNTVYLHMNSLKPEDTAVYYCAAVPWRRSTRYDYWGQGTQVTVSS | high polyreactivity

Row | Sequence | polyreactivity (PSR sort gate)
21 | QVQLEESGGGLVQAGGSLRLSCAASGRTSLAYAMGWYRQATGKEMELVAGITSGGNTNYADSVKGRFTISCDNAKNTVYLQMNSLKPEDTAVYYCNKKKRWQWYSDSVLDYLGFYSWGQGTQVTVSS | low polyreactivity
22 | QVQLVESGGGLVQAGGSLRLSCAASGRIFYHNAMGWYRQAPGKEREFVAAINWRGGNTYYADSVKGRFTISRDNAKITVYLQMNSLKPEDTAVYYCNALYKRYTDYDYWGQGTQVTVSS | high polyreactivity
23 | QVQLVESGGGLVQAGGSLRLSCAASGRTLDWNAMGWYRQAPGKERELVAAISWSGDSTYYADSVKGRFTISRDNAKNTVYLQMNSLKPEDTAVYYCAARYGRSWGRGYGYWGQGTQVTVSS | low polyreactivity
24 | QVQLVESGGGLVQAGVSLRLSCAASGFTFPWYAMGWYLQAPGKERELVAAISWTGGSTYYADSVKGRFTSSRDNPKNTVNLQMLSLKPEDTAVYYCAVGIYDHLYNHEYWGHGTQVTVSS | low polyreactivity
25 | QVQLVESGGGLVQAGGSLRLSCAASGITFRKYAMGWYRQAPGKERELVAGIRYSGSSTYYADSVKGRFTISRDNAKNTVYLQMNSLKPEDTAVYYCAVYGTTRYATTYDYWGQGTQVTVSS | high polyreactivity
26 | QVQLVESGGGLVQAGGSLRLSCAASGSTFKVNAMGWYRQAPGKERELVAAISRGGSTYADSVKGRFTISRDNAKNTVYFQINSLKPEDTAVYYCAAKSRYFQPDEYYYWGQGTQVTVSS | high polyreactivity
27 | QVHLVDSGGGLVQAGGILRLSCPATGSIFVYNTMGWYRQAPGKERELVADITSGTSTYYADSVKGRFTISRDNAKNTVYLQMNSLKPEDTAVYYSAAERWYKYYAYDYWGQGTQVTVSS | low polyreactivity
28 | QVQLVESGGGLVQAGGSLRLTCAASGYAMGWYRQAPGKERELVAAISWSGDITYADSVKGRFTISRDNAKNTVYLQMNRLKPEDTAVYSCNADRYTGRDGEQSLDYWGQGTQVTVSS | low polyreactivity
29 | QVQLVESGGGLVQAGGSLRLSCAASGSIFSFYAMGWYRQAPGKERELVAAIRYSRGSTYYADSVKGRFTISRDNAKNTVYLQMNSLKPEDTAVYFCAARGGSRRFQSQAYSLPRYDYWGQGTQVTVSS | high polyreactivity
30 | QVQLVESGGGLVQAGGSLRLSCAASGRTITKYVMGWYRHAPGKERELVAAITSSGSSTYYADSVKGRFTISRDNAKNTVYLQMNSLKPEDTAVYYCAARRGAPFARQYDYWGQGTQVTVSS | high polyreactivity
31 | QVQLVESGGGLLQAGGSLRLSCAASGLIFVVNDMGCYTQAPGKERELVAAISYSGSSTYGDSVKGRFTISRDNAKNTVYLQMNSMNPEDTAVYYCARGSTVRTRGVGYWGQGTLVTVSS | low polyreactivity
32 | QVLLQESGGGLVQAGGSLRLSCEAIGNIFSAGGMGWYRQAPVNERELVAGIGTGTSTNYAESVKGRFTISRDNAKNTVYLQMNSLNPEDTAVYYCAAAYYSGLSHWYWGQGTQVTVSS | low polyreactivity
33 | QVQLVESGGGLVQAGGSLRLSCAASGSIFSINTMGWYRQAPGKERELVAAISRTGGSTYYADSVKGRFTISRDNAKNTVYLQMNSLKPEDTAVYYCAARKYADGRIFYYWGQGTQVTVSS | high polyreactivity
34 | QVQLVESGGGLVQAGGSLRISCAASGRTFGRYTMGWYRQAPGKVRELVASISNTARTNYADSVKGRFTISRDNAKNTVYLQMNSLKPEDTAVYYCASGFVRYRGTRDYWGQGTQVTVSS | low polyreactivity
35 | QDQLVESGGGLVQAGGSLRLSCAASGRTFASYAMGWYRQAPGKERELVAAITSSGGRTYYADSVKGRFTISRDYAKNTVYLQMNSLKPEVTAVYYCAVRGTKGYGYWGQGTQVTVSS | high polyreactivity
36 | QVQLVESGGGLVQAGGILRLSFAASGSTFYPNTMGWYRQAPGKERELVAAITNGGSTNYADSVKGRFTIARDNAKNTVYLQMNSLKPEDTAVYDCAADGYDQWGRDVVYLIWTSYDYWGQGTQVTVSS | high polyreactivity
37 | QVQLVESGVGLVQAGGSLRLSCAASVSTFAYNAMGWYRQSPGKEREIVASISWSGGSTYYADSVKGRFTISRDNAKNSVYLQMNSLKPEDTAVYYCAADLNAYPQRAYDYWGQGTQVTVSS | low polyreactivity
38 | QVQLVESGGGLVQAGGSLRLSCAASGSTFRIYVMGWYRQAPGKEREFVAAISRGGGSTYYADSVKGRFTISRDNAKNTVYLQMNSLKPEDTAVYYCAAVTRDYGSRSGLDYWGQGTQVTVSS | high polyreactivity
39 | QVQLVESGGGLVQAGGSLRLSCAATGSIIVYNTMGWYRQAPGKERELVAAITVRDDSTYYADSVKGRFTISRDNAKNTVYLQMNSLKPEDTAVYYCNARGNFLIGRDYWGQGTQVTVSS | low polyreactivity
40 | QVQLVESGGGLFQAGGSLRLSSAASGIIFSTYAMGWYRQAHGKERELVAAITSTGSTNYADSVKGRFTISRDNAKNTVYLQMNSLKPEDTAVYYCAAEGHTAFLVYRVSPLQYDYWGQGTQVTVSS | low polyreactivity
